Results as given in the supplement of paper PMC9170038.

test system: K4 kissing-loop RNA reporter; assay: apparent KD of K4 kissing-loop reporter; higher = weaker reporter binding; details: Eterna round: R107; input ligand: theophylline 20 uM
Protocol: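 RNA-MaP round R107: designed RNA switches with theophylline, tryptophan, arginine or FMN aptamers are transcribed on-chip within common flanks. They are titrated with a labelled K4 kissing-loop RNA reporter in RNA-MaP buffer (100 mM Tris pH 7.5, 80 mM KCl, 4 mM MgCl2), without ligand or with the indicated ligand. Median apparent KD per design.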
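Note: bound reporter read as fluorescence of individual clusters on recovered sequencing chips by microscopy, with normalized cluster intensities fitted with a binding model.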

Row | Sequence | apparent KD of K4 kissing-loop reporter [nM]
1 | GCUAUGGUAGGAAGGAGCGCUUAUUUAUUAAUAAGAGUGAUGUUCGAUAGUAGAUAUUUAUAGCAGGUAGGUCGCCUACUAUAGC [Arginine B K4 12] | 341
2 | UUGCUUCUACUAGGAUAUCAUCAGUCAUGUUCAAUGACACUCGAGUGAUGUUCGAUAGAAGCGAGAUGAGAAGGAGUACAAGCAG [FMB B SS t3] | 118
3 | GAUUCUGUUCGAAAGAACGGAAUCUCGGAAGGAGCGAGAGAAAUCUCAGGUAGGUCGCCGAAUUUUUGAUAGUGAUGUUAUCAUU [Arginine A K4 3] | 393
4 | AAGCAGUCACUCGUAACCAUCGAAGAUGGUCGAGGACCGGUACGGCCGCCACUCGGAGUGAUGUUCCGAAGACUGCAAAAUAAAA [#SwitchBubble 12] | 292
5 | AAAUGUUUGUAUUUGAACAAUUUCCUUAGAGAGGAUAUUGGUAAUACAAGAAGGCUCUGAUGGGAGUGAUGUUCCCAUAACGCGG [Exclusion FMN A GF14] | 126
6 | ACGUGCACUAGUGAUGUUGGAAAAUAGGAAGGAGCGGGCGAAAGCCCAGGUAGGUCGCCUAAUAGCACGAGCCACGAAAGUGGCA | 774
7 | AAUUUAUUAACUGAUACCAGACUUAAUUAAUUGUAAAUUACUAGUGAUGUUAGUGAUUCUGUCCCUUGGCAGCAGUAUUUAUUAA [JR_ExcTheophyB_Sub011] | 139
8 | GCCGUACGCAUGGAUACCAGCAUCGACUCAUAUACAGUGAUGUUGUGUAAUGACCUCAUUUGCCCUUGGCAGCCAUGCGUACGGC | 857
9 | AGUACGGUGCCGUUCAGAUCAACGUAUGAUACCAGCUCGUAUAUUAGCCCUUGGCAGCAUCCGAGUGAUGUUCGGAUUGUGCCAC [theeternabot_exclusion_KL_Theo_A_45] | 93.5
10 | CGCGCCCAGCCGGAUACCAGUGACCCGCUGGGAACCGCGGGCCCAGAGUGAUGUUCGGGACACCCUUGGCAGCCGCCUGGGCGGG [#2 Same State - Theophylline B Attempt #16 (HarryS)] | 460
11 | AAAUUUAAUAUAUUUAAUUAAUUAUGUGAUACCAGACAUUAAUAAGUCCCUUGGCAGCACAAUGCAGUGAUGUUGCAUAUAAUAA [JR_SSTheophyA_Sub011] | 84.8

same assay, conditions: Eterna round: R107; input ligand: tryptophan 2.4 mM

Row | Sequence | apparent KD of K4 kissing-loop reporter [nM]
12 | GGAGGGAUCUCGGCCGCCACUCAUAAGAAAUGGGCCUCAGAGAUAUAGUGAUGUUAUGUAAAGAAGAGGACCGGGAGAAAGAAGG [ExTryptoB.Db] | 144
13 | UAUAUAGUGACGGCCGCCACUAUUGUGAUUUAAUUGUUAGAGUGAUGUUUUGUUGUUUGAUUUUGUAGGACCGGGUUAUAUGUUA [vnbbwzmullin] | 839
14 | GUAUGUGGAAACACGUACUUAUAUCCUAAGCAGGAUAUGCGGAAACGCAGAAGGGCUACCAACGAGUUUACCCAGUGAUGUUGGG [Ex FMN A 14] | 296
15 | UACAUAUUAUUAUUUCUACAUUUAUUUAGUCAGGAUAUCGAUUAAACGAGAAGGGACAAUAUCAAGUGAUGUUUGAUAAUUCAAA [JR_SSFMNA_Sub022] | 60
16 | GUGGAAUUAUGAAAGUGGUUUUAUAAGGAAGGAGCGGCCGAAAGGCCAGGUAGGUCGCCUAUUGACAGUGAUGUUGUUAUAUGGA [#13] | 75
17 | GAUGUUUGCCGAAGGAGCGAGUAUUCGCCAGUGAUGUUGGUGAGAUAUACACGUAUCAGUGCUCAGGUAGGUCGCGGCGCUUGUU [Same State Arginine B GF 27] | 117
18 | AAGGCCACGAGAAGGAGCGUGCUGUGGAGUGAUGUUCCAUUGUAGACCUAAGGUCUACGAGCACAGGUAGGUCGCUCGUGGUCAA [Omei KL Arginine B SS A v4] | 99.6
19 | AAAUUUAUAUUAGAUACCAGCAUAUUGAAAGUUUAUUAUGACAAGAGUGAUGUUCUUGUAUGCCCUUGGCAGCUGGUAUGGGUUU [KL-XTheo-B25] | 110
20 | AAGCAGUCGCUCGAAGCCAUCGAAGAUGGGCGAGGACCGGUACGGCCGCCACUCGGAGUGAUGUUCCGAGGACUGCAAAAUAAAA [MatMod 5 - Jieux - Exclusion - Tryptophan A] | 409
21 | UAGUCCGGGUGAUGGUCAUCACGUGGCGGGCGAGGACCGGUACGGCCGCCACUCGACUUUGCAGUGAUGUUGCAAACCGGACAAU [Exclusion - Tryptophan A (Freestyle 22)] | 259
22 | AAGUGUGUGGCGGCCGCCACUAGAAUCCAGUGAUGUUGGAGUUAUCAUAUAAAUGAUAAUCAACAUAGGACCGGGCCAUAUAGAA [Same State - Tryptophan B (Freestyle 7)] | 783
23 | GUCCGGAAGGCGGCUUCACGACCGUGGUGGGAGGAUAUGUCUAAGGACAGAAGGCCCAGUGAUGUUGGGCUUUAGGAGAGCCAUA [Ragele] | 118
24 | UUGCCCGAUGGAGAUACCAGCAGUUGUGCAGUGAUGUUGCACAAGUACUCGCUCCAUUGCUGCCCUUGGCAGCUCCCGGCGAAAA [Reoraren] | 81.3
25 | GCGCAUGUUAAAGGAUAUAGCAGGUGAUACAAGAAAGUGAGUGAUGUUUAUGUAGAUGAUGAUAUGUUAGAAGGUUAACAAGCGC [abcdefghijklmnop] | 600
26 | AAGAAUGCAGGAAGGAGCGGCGGACGGAGUGAUGUUCCGGCUAGUGAUGUUAGCAAACACCGCCAGGUAGGUCGCCUGCUGCCCU [Same State Arginine B GF 6] | 151
27 | UAAGAGGACCACUGCAAAAGUCCUCGAAUACGAGGACCGGUACGGCCGCCACUCGAUAAUUUGCAGUGAUGUUGCAAGUAAGAAU [BrourdMod 4 - Jieux - Same State Tryptophan A] | 71.2
28 | AGCUAGUGAAACUAGUUUAAACUAGGUGAAGGAGCGAUCGAAAGAUCAGGUAGGUCGCACCUAACUGAGUGAUGUUCAGGAAAUA [KL-SSArg-A4] | 61.3
29 | GCACACUAGUAAACUAGUGUGUUAACUGAAGGAGCGUGAAUAAUCACAGGUAGGUCGCAGUUUGUCAGUGAUGUUGACACGAGUG [Arg A SS t2] | 179
30 | CUGCAAAAGUCGGCCGCCACUCCGGGCCCUAUAAAUGGGCGCAGUGAUGUUGCGGCUAGGCCUCUGAGGACCGGGACUUUGUAAC [Aratan] | 218
31 | CCAUCGCUAUUCGAUACCAGCUCCUUAGUGAUGUUAAGGUUUUACGCUCUGUAGGAGCGAAGCCCUUGGCAGCGAGUAGUGAUGG [#04 K4 Theophylline B Same State] | 1110
32 | GGCAUGCGUAGAGUGAUGUUCUAAGAUGAUACCAGUGCGGAAACGCACCCUUGGCAGCAUCUGACGAGCAUGCCGGCGAAAGCCU | 771

Row | Sequence | apparent KD of K4 kissing-loop reporter [nM]
33 | AGAGUUAUGCGAGGAUAUGCAGUUAGUACUCAAAGAGUACUAACGCAGAGUGAUGUUCUGUGAAAUGCAGAAGGUGCAUAACUCA [Omei KL FMN B SS B v5] | 289
34 | GGGCAAGUGAGUGAUGUUCGAUGAUGCUUAAAGGAUAUGUAGGAAUACAGAAGGUUAUAUUCCCUGACAUUAGAUCUUUACAGGG [theeternabot_exclusion_KL_FMN_A_44] | 90.4
35 | GACCUAAGCUAUGAUACCAGUCUGGCACGAAGAAGUGAUGUUUCCCAGCGUUUGUCACUUGACCCUUGGCAGCAUGCGAUCAGCU [theeternabot_sameState_KL_Theo_B_29] | 128
36 | CGAGUGAUGUUCGUUCGUUUAUUUCGGUGACAGGAUAUGCGGAAACGCAGAAGGGUCACCUUUGAGUUACCGGAAUUAACGUUAU [Ex FMN A 29] | 455
37 | CGAAGAUUCCAUGAUACCAGCCUCGGCCCAUAGAGUGAUGUUCUAGUCGGGUCCGUUCGCGGCCCUUGGCAGCAUUUCACCACGA [theeternabot_sameState_KL_Theo_B_44] | 159
38 | UGUCAUUGGUCGGCCGCCACUAUAUAAAAGAGUGAUGUUCUAAAGACGGAUCGAAAGAUCUGUCAUAGGACCGGGACCGAUGACU [TrypBS 20 #SwitchBubble #StaticStem] | 1140
39 | UCCCUAAAGGGAGAUACCAGUAAAGAAGUGACGGAGUGGAGUGAUGUUCCAUAUUACUGAUACCCUUGGCAGCUCUUUUGAUUAC [theeternabot_sameState_KL_Theo_B_47] | 93.2
40 | AACUGUCAAGGACAACAUUACUGAGGUGAUACCAGCAUCGAAAGAUGCCCUUGGCAGCACCGACUUGCAGUGAUGUUGCAAGUAA [BrourdMod 11 - Jieux - Exclusion - Theophylline A] | 247
41 | UUUUAAUGCAGUGAUGUUGCUAAUAAAACAGAGGAUAUGCAUGGAAGCAGAAGGCUGAAAUAUUAUACUUUAAUAAAUUAUAUUU [JR_SSFMNA_Sub010] | 66.6
42 | AUUCUUUUUUUGAUGUUUUUUGUAUAAUGGCAGGAUAUCGUAGAAGCGAGAAGGGCUUUUAUGCGUUAUGAGUGAUGUUUGUAGG [szeewvmullin] | 205
43 | GCUAUGGUAGGAAGGAGCGCUUAUUUAUUAAUAAGAGUGAUGUUCGAUAGUAGAUAUUUAUAGCAGGUAGGUCGCCUACUAUAGC [Arginine B K4 12] | 167
44 | UUGCUUCUACUAGGAUAUCAUCAGUCAUGUUCAAUGACACUCGAGUGAUGUUCGAUAGAAGCGAGAUGAGAAGGAGUACAAGCAG [FMB B SS t3] | 70.7
45 | GAUUCUGUUCGAAAGAACGGAAUCUCGGAAGGAGCGAGAGAAAUCUCAGGUAGGUCGCCGAAUUUUUGAUAGUGAUGUUAUCAUU [Arginine A K4 3] | 397
46 | AAGCAGUCACUCGUAACCAUCGAAGAUGGUCGAGGACCGGUACGGCCGCCACUCGGAGUGAUGUUCCGAAGACUGCAAAAUAAAA [#SwitchBubble 12] | 607
47 | AAAUGUUUGUAUUUGAACAAUUUCCUUAGAGAGGAUAUUGGUAAUACAAGAAGGCUCUGAUGGGAGUGAUGUUCCCAUAACGCGG [Exclusion FMN A GF14] | 91
48 | ACGUGCACUAGUGAUGUUGGAAAAUAGGAAGGAGCGGGCGAAAGCCCAGGUAGGUCGCCUAAUAGCACGAGCCACGAAAGUGGCA | 522
49 | AAUUUAUUAACUGAUACCAGACUUAAUUAAUUGUAAAUUACUAGUGAUGUUAGUGAUUCUGUCCCUUGGCAGCAGUAUUUAUUAA [JR_ExcTheophyB_Sub011] | 92.5
50 | GCCGUACGCAUGGAUACCAGCAUCGACUCAUAUACAGUGAUGUUGUGUAAUGACCUCAUUUGCCCUUGGCAGCCAUGCGUACGGC | 800
51 | AGUACGGUGCCGUUCAGAUCAACGUAUGAUACCAGCUCGUAUAUUAGCCCUUGGCAGCAUCCGAGUGAUGUUCGGAUUGUGCCAC [theeternabot_exclusion_KL_Theo_A_45] | 102
52 | CGCGCCCAGCCGGAUACCAGUGACCCGCUGGGAACCGCGGGCCCAGAGUGAUGUUCGGGACACCCUUGGCAGCCGCCUGGGCGGG [#2 Same State - Theophylline B Attempt #16 (HarryS)] | 608
53 | AAAUUUAAUAUAUUUAAUUAAUUAUGUGAUACCAGACAUUAAUAAGUCCCUUGGCAGCACAAUGCAGUGAUGUUGCAUAUAAUAA [JR_SSTheophyA_Sub011] | 65.4
